Publication doi:10.1101/2025.08.13.670108v1

Key:
[1] = tested on: O=C(O)/C=C/c1c[nH]cn1; experiment: purified protein; settings: pH 8.0; 25.0 °C
[2] = tested on: C[N+](C)(C)[C@@H](Cc1cnc[nH]1)C(=O)[O-]; experiment: purified protein; assay type: biochemical, Shewanella woodyi; settings: pH 8.5

Work on “Swoo_3912 (Shewanella woodyi ATCC 51908)” yielded a Km [1] of 0.7 ± 0.1 µM.
For “Swoo_3913 (Shewanella woodyi ATCC 51908)”, the Km [2] was 103 ± 8 µM.
